Consider 1 molecule from patent US11819540B2, “Methods for treating and preventing neutrophil-derived net toxicity and thrombosis” (CHILDREN'S MEDICAL CENTER CORPORATION, priority 2011, dated 2023).

In this experiment the test system is ischemic stroke (tMCAO) in mice. The experiment is described as follows: Transient middle cerebral artery occlusion (tMCAO) stroke model. Format: in vivo, mouse. The procedure:
Next, the question of whether cerebral ischemia/reperfusion injury effects circulating levels of NETs was addressed. Wild-type C57BL/6 mice were subjected to 2 hours of transient middle cerebral artery occlusion (tMCAO), followed by 22 hours of reperfusion. Focal cerebral ischemia was induced by 60 or 120 min tMCAO. Mice were anesthetized with 2% isoflurane/oxygen mixture. Following a midline skin incision in the neck, the proximal common carotid artery, and the external carotid artery were ligated, and a standardized silicon rubber-coated 6.0 nylon monofilament (6021; Doccol Corp., Redlands, CA) was inserted and advanced via the right internal carotid artery to occlude the origin of the right MCA. […] The intraluminal suture was left in situ during the complete occlusion time. Then animals were re-anesthetized, and the occluding monofilament was withdrawn to allow reperfusion. In animals undergoing a sham treatment, the exact same procedure was followed except that the monofilament was only inserted three quarters of the normal distance that is necessary to occlude the MCA, after which it was immediately withdrawn. Some animals were exclusively used for laser-Doppler flowmetry (Periflux 5000, Perimed, Kings Park, NY) to monitor regional cerebral blood flow (rCBF) in the MCA territory.
Wild type (WT) and […] mice were subjected to 1 h of tMCAO and 23 h of reperfusion after which mice and brains were analyzed. Mice were killed 24 hours after initiation of tMCAO. Brains were quickly removed and cut into 2-mm-thick coronal sections using a mouse brain slice matrix. The slices were stained with 2% 2,3,5-triphenyl-tetrazolium chloride (TTC; Sigma-Aldrich, St. Louis, MO) in PBS to visualize the infarctions. Sections were photographed with a digital Nikon D70 camera and infarct areas (white) were measured blindly using Image J software (National Institutes of Health). Brain infarct volumes were measured by planimetry (FIG. 9A). Compared to the wild-type controls, DNase-1^−/− mice developed larger brain infarctions (84.10±7.24 mm^3 versus 58.50±4.04 mm^3, p<0.05, FIG. 9A).
Neurological function was assessed, blinded for the mouse genotype 24 h, after initiation of tMCAO, using the modified Bederson score (Bederson et al., Stroke 1986 17:472-6). This test determines global neurological function according to the following scoring system: 0, no deficit; 1, forelimb flexion; 2, decreased resistance to lateral push; 3, unidirectional circling; 4, longitudinal spinning; 5, no movement. The grip test was performed as described (Moran et al., PNAS 1995 92:5341-5). A mouse was placed on a wooden bar (3 mm in diameter, 40 cm long) that is attached to two vertical supports 40 cm above a flat surface. When placing the mouse at a point midway between the supports, the experiment was rated according to the following system: 0, falls off; 1, hangs onto bar by two forepaws; 2, as for 1, but attempts to climb onto bar; 3, hangs onto bar by two forepaws plus one or both hindpaws; 4, hangs onto bar by all four paws plus tail wrapped around bar; 5, escape (where mouse was able to work its way to one of the supports). […] The turns in one versus the other direction were recorded from ten trials for each test. Turning movements that were not part of a rearing movement were not scored. […]

[1] abbreviates: rhDNase-1 vs vehicle, 24 h, p<0.05.

B1: rhDNase-1: recombinant human DNase-1 (Dornase alpha, Pulmozyme, Genentech) (protein, UniProt P24855 23-282, looked up)
Deoxyribonuclease-1: LKIAAFNIQTFGETKMSNATLVSYIVQILSRYDIALVQEVRDSHLTAVGKLLDNLNQDAPDTYHYVVSEPLGRNSYKERYLFVYRPDQVSAVDSYYYDDGCEPCGNDTFNREPAIVRFFSRFTEVREFAIVPLHAAPGDAVAEIDALYDVYLDVQEKWGLEDVMLMGDFNAGCSYVRPSQWSSIRLWTSPTFQWLIPDSADTTATPTHCAYDRIVVAGMLLRGAVVPDSALPFNFQAAYGLSDQLAQAISDHYPVEVMLK
Regarding B1, the brain infarct volume (1 h tMCAO, 23 h reperfusion, 50 μg i.p. 15 min before surgery and 12 h later, 10 μg i.v. 5 min before reperfusion, vehicle 81.45±9.08) was 50.67±8.74 mm^3. Also, the “infarct size smaller than vehicle” value (1 h tMCAO, 23 h reperfusion, rhDNase-1 vs vehicle) is “approximately 40%”. Besides, under setting [1], the Bederson test score result is recorded as “significantly better”, the corner test result is reported as “significantly better” and the grip test score result was “significantly better”.
